Source: US7943356B2, “Alcohol dehydrogenase for the stereoselective production of hydroxy compounds” (Codexis, Inc., priority 2004, dated 2011)
Read-outs that look alike come from different tables or passages of the source.

What was measured:
ADH T = test: Relative activities of purified ADH T in the reduction of different substrates; type: biochemical, Thermoanaerobacter species
[1] = Storage stability of the isolated ADH T (residual activity); type: physicochemical; conditions: for Activity Day 5 / Activity Day 10 / Activity Day 20 / Activity Day 40 / Activity Start: storage at 4° C.
Description: In spite of its thermal stability, the isolated ADH T cannot be stored for long under standard conditions (50 mM Tris-Cl, pH 7.0). The half-life is only ca. 4 days. By addition of e.g. NaCl, the half-life can be increased to more than 40 days (Table 2).
(§1) The activities were determined by photometric measurement of the decrease in the cofactor. Measurement batch: 50 mM Tris-Cl, pH 7.0 with 10 mM substrate and 0.2 mM NADPH. The measurement batch for ADH-TE also contained 1 mM of MgCl2.
(§2) The decrease in NADPH was followed at 340 nm for one minute after addition of the enzyme. Sufficient enzyme was added for the activity to be between 0.5 and 1.5 U/ml and the measurement volume was 1 ml.
(§3) 1 U corresponds to the quantity of enzyme which converts 1 μmol of substrate per minute.

[2] = Activity with diketone 2,5-hexanedione (photometric NADPH decrease); type: biochemical
Description: (§4) The comparison of the activity of the ADH T with that of the secondary alcohol dehydrogenase from Thermoanaerobacter ethanolicus 39E (U.S. Pat. No. 5,908,924) with regard to the conversion of diketones is interesting (Table 6).
as §1, §2, §3

[3] = Activity with diketone 2,4-pentanedione (photometric NADPH decrease); type: biochemical
Description: as §4, §1, §2, §3

[4] = Activity with standard substrate acetone (photometric NADPH decrease); type: biochemical; conditions: acetone (10 mM); ADH T 1.5 mg/ml, ADH-TE 2.45 mg/ml; ADH-TE batch also 1 mM MgCl2
Description: as §4, §1, §2, §3

[5] = Reduction of 2,5-hexanedione to the diol, conversion and ee/de; type: biochemical; conditions: after 48 hrs
Excerpt: The ee/de value of 100% signifies absolute enantiomeric and diastereomeric purity of the diols prepared. By means of the invention described here, the ADH T can for the first time be obtained in sufficient quantity to produce enantiomerically pure diols on the kilogram scale.

[6] = Activity of the isolated ADH T at different pH values; type: biochemical
Description: The activities were determined by photometric measurement of the decrease in the cofactor. […] The measurement batch for ADH-TE also contained 1 mM of MgCl2.
as §2, §3

[7] = Thermal stability of ADH T; type: physicochemical; conditions: after 12 hrs at 50° C.
Description: The thermal stability is also very good. The activity of the ADH T was still at 75% of the starting value even after 12 hrs at 50° C.

[8] = Conversion of 2-pentanone with substrate-coupled cofactor regeneration (isopropanol); type: biochemical; conditions: 200 mM 2-pentanone, 3 U/ml ADH T, 0.05 mM NADP
Excerpt: In fact, it can be shown that the enantioselectivity in the reduction of critical ketones such as 2-pentanone or 2-butanone by substrate-coupled cofactor regeneration with isopropanol is also far better than with the use of enzyme-coupled cofactor regeneration.
Also, the achievable enantiomeric purity of the product depends on the quantity of isopropanol used (Table 9).

[9] = substrate 10 mM, activity with acetone set at 100%, purified ADH T
[10] = substrate 10 mM, activity with acetone set at 100%, […]
[11] = relative to standard substrate acetone (10 mM)

`CCOC(=O)CC(C)=O` [Ethyl acetoacetate] showed a Relative activity (ADH T; [9]) of 22%.

With `CC(C)=O` [Acetone] the Relative activity (ADH T; [10]) was 100%.

With `CCC(=O)C(=O)O` [2-oxobutyric acid] the Relative activity (ADH T; [9]) was 28%.

`CCCCC(C)=O` [2-hexanone] gave a Relative activity (ADH T; [10]) of 30%.

In the case of `CCC(C)=O` [2-butanone], the Relative activity (ADH T; [10]) is reported as 72%.

Monochloroacetone gave a Relative activity (ADH T) of 71%.

Work on `CC(=O)c1ccccn1` [2-acetylpyridine] yielded a Relative activity (ADH T; [9]) of 36%.

`CCOC(=O)CC(=O)CCl` [Ethyl 4-chloroacetoacetate] showed a Relative activity (ADH T; [10]) of 45%.

Molecule `O=C1CCCCC1=O` [1,2-cyclohexanedione] has a Relative activity (ADH T; [9]) of 5%.

Work on `CCC(C)C=O` (stereo not shown) [2-methylbutyraldehyde] yielded a Relative activity (ADH T; [9]) of 52%.

`CC=O` [Acetaldehyde] gave a Relative activity (ADH T; [10]) of 101%.

For `CCCCCC(=O)CC` [3-octanone], the Relative activity (ADH T; [9]) was 26%.

For `CCCC(C)=O` [2-pentanone], the Relative activity (ADH T; [9]) was 31%.

`CC(=O)CCCl` [4-chloro-2-butanone] gave a Relative activity (ADH T; [10]) of 66%.

For `CC(=O)CCO` [4-hydroxy-2-butanone], the Relative activity (ADH T; [10]) was 13%.

For `C#CC(C)=O` [3-butyn-2-one], the Relative activity (ADH T; [10]) was 76%.

`CC(=O)CC(C)=O` [2,4-pentanedione] gave a Relative activity (ADH T; [9]) of 77%.

In the case of `CC(=O)c1ccc(Cl)cc1` [p-chloroacetophenone], the Relative activity (ADH T; [10]) is reported as 17%.

Work on `CC(=O)C(C)=O` [Diacetyl] yielded a Relative activity (ADH T; [9]) of 154%.

Work on `CCCCCCC(C)=O` [2-octanone] yielded a Relative activity (ADH T; [9]) of 9%.

With `CC(=O)c1ccccc1` [Acetophenone] the Relative activity (ADH T; [9]) was 28%.

In the case of `CC(=O)CCC(C)=O` [2,5-hexanedione], the Relative activity (ADH T; [9]) is reported as 74%.

`O=C(CCl)c1ccccc1` [Phenacyl chloride] showed a Relative activity (ADH T; [10]) of 25%.

B1: ADH T: thermally stable, (S)-selective NADP-dependent alcohol dehydrogenase from Thermoanaerobacter species (SEQ ID NO: 2), recombinant (protein)
chain: MKGFAMLSIGKVGWIEVEKPNPGPFDAIVRPLAVAPCSSDIHTVFEGGLGELHNAVLGHEAVGEVVEVGSEVKDFKPGDKVVIPAITPDWRTLDVQRGYHQQSGGMLAGYKFTAQKPGVFAEYIYVNDADMNLAHLPDGISLEAAVMITDMMTTGFHGAELAEIELGATVAVLGIGPVGLMAVAGAKLRGAGRIIAVGSRPVCVDAAKYYGATDIVNYKNGPIDSQIMDLTKGKGVDAAIIAGGNVDIMATAVKIVKPGGTIANVNYFGEGDVLPVPRLEWGCGMAHKAIKGGLCPGGRLRMERLIDLVFYKRVDPSKLVTHVFQGFDNIEKALMLMKDKPKDLIKPVVILA
modifications: Thermoanaerobacter species
With B1 the “Activity Day 5” value ([1]; 0.0 M NaCl) was 24 U/ml, the “Activity Day 10” value ([1]; 0.0 M NaCl) was 6 U/ml and the “Activity Day 20” value ([1]; 0.0 M NaCl) was 0 U/ml. For the same molecule, the “Activity Day 40” value ([1]; 0.0 M NaCl) was 0 U/ml, the “Activity Start” value ([1]; 0.0 M NaCl) was 105 U/ml and the “Activity Day 5” value ([1]; 0.2 M NaCl) was 101 U/ml. The “Activity Day 10” value ([1]; 0.2 M NaCl) was 7 U/ml, the “Activity Day 20” value ([1]; 0.2 M NaCl) was 0 U/ml and the “Activity Day 40” value ([1]; 0.2 M NaCl) was 0 U/ml. The “Activity Start” value ([1]; 0.2 M NaCl) was 105 U/ml, the “Activity Day 5” value ([1]; 0.5 M NaCl) was 113 U/ml and the “Activity Day 10” value ([1]; 0.5 M NaCl) was 86 U/ml. The “Activity Day 20” value ([1]; 0.5 M NaCl) was 0 U/ml, the “Activity Day 40” value ([1]; 0.5 M NaCl) was 0 U/ml and the “Activity Start” value ([1]; 0.5 M NaCl) was 105 U/ml. For the same molecule, the “Activity Day 5” value ([1]; 1.0 M NaCl) was 115 U/ml, the “Activity Day 10” value ([1]; 1.0 M NaCl) was 119 U/ml and the “Activity Day 40” value ([1]; 1.0 M NaCl) was 78 U/ml. For the same molecule, the “Activity Start” value ([1]; 1.0 M NaCl) was 105 U/ml, the “duration of high stability on storage” value ([1]; storage at −20° C. with addition of glycerine, in particular 50%) was “at least 3 months” and the “effect of addition of zinc ions to the prepared enzyme” value ([1]; zinc ions added to prepared enzyme) was “leads rapidly to its inactivation”. The spec. activity [2] was 52.7 U/mg, the rel. activity [2, 11] was 74% and the spec. activity [3] was 55.4 U/mg. The rel. activity [3, 11] was 77%, the “activity with standard substrate” value [4] was 106 U/ml and the Conversion to diol ([5]; enzyme-coupled) was 82.4%. For the same molecule, the “ee/de for the (S,S) enantiomer” value ([5]; enzyme-coupled) was 100%, the Conversion to diol ([5]; substrate-coupled) was 10.6% and the “ee/de for the (S,S) enantiomer” value ([5]; substrate-coupled) was 100%. It also gave a pH optimum [6] of 7.0, a Measured activity ([6]; pH 5.0) of 53 U/ml and a Measured activity ([6]; pH 6.0) of 134 U/ml. For the same molecule, the Relative activity ([6]; pH 6.5) was 66%, the Measured activity ([6]; pH 7.0) was 192 U/ml and the Relative activity ([6]; pH 7.0) was 100%. For the same molecule, the Relative activity ([6]; pH 7.5) was 74%, the Measured activity ([6]; pH 8.0) was 146 U/ml and the Measured activity ([6]; pH 9.0) was 13 U/ml. The “activity remaining, of the starting value” [7] was 75%, the Conversion ([8]; 100 mM Tris-Cl pH 7.0, 20% isopropanol, 24 hours) was 85.3% and the Conversion ([8]; 100 mM Tris-Cl pH 7.0, 20% isopropanol, 48 hours) was 86.5%. For the same molecule, the Conversion ([8]; 100 mM Tris-Cl pH 7.0, 50% isopropanol, 24 hours) was 93.8% and the Conversion ([8]; 100 mM Tris-Cl pH 7.0, 50% isopropanol, 48 hours) was 94.2%.
